Data taken from patent US20240018502A1.

B1: MTSP-1 I41R/F97W/F99L/C122S/G151N/Q192G (enzyme)
chain: VVGGTDADEGEWPWQVSLHALGQGHRCGASLISPNWLVSAAHCYIDDRGFRYSDPTQWTAFLGLHDQSQRSAPGVQERRLKRIISHPFFNDWTLDYDIALLELEKPAEYSSMVRPISLPDASHVFPAGKAIWVTGWGHTQYGGTNALILQKGEIRVINQTTCENLLPQQITPRMMCVGFLSGGVDSCGGDSGGPLSSVEADGRIFQAGVVSWGDGCAQRNKPGVYTRLPLFRDWIKENTGV
B2: MTSP-1 Q38E/H40R/I41H/F97D/F99L/C122S/Q192G (enzyme)
chain: VVGGTDADEGEWPWQVSLHALGEGRHCGASLISPNWLVSAAHCYIDDRGFRYSDPTQWTAFLGLHDQSQRSAPGVQERRLKRIISHPFFNDDTLDYDIALLELEKPAEYSSMVRPISLPDASHVFPAGKAIWVTGWGHTQYGGTGALILQKGEIRVINQTTCENLLPQQITPRMMCVGFLSGGVDSCGGDSGGPLSSVEADGRIFQAGVVSWGDGCAQRNKPGVYTRLPLFRDWIKENTGV
B3: MTSP-1 H40R/I41H/F97D/F99L/Q175R/Q192G/D217E/K224R (enzyme)
chain: VVGGTDADEGEWPWQVSLHALGQGRHCGASLISPNWLVSAAHCYIDDRGFRYSDPTQWTAFLGLHDQSQRSAPGVQERRLKRIISHPFFNDDTLDYDIALLELEKPAEYSSMVRPICLPDASHVFPAGKAIWVTGWGHTQYGGTGALILQKGEIRVINQTTCENLLPQRITPRMMCVGFLSGGVDSCGGDSGGPLSSVEADGRIFQAGVVSWGEGCAQRNRPGVYTRLPLFRDWIKENTGV
B4: MTSP-1 Y59F/ins97aE/F97T/T98G/F99L/C122S/Q175L/Q192E (enzyme)
chain: VVGGTDADEGEWPWQVSLHALGQGHICGASLISPNWLVSAAHCFIDDRGFRYSDPTQWTAFLGLHDQSQRSAPGVQERRLKRIISHPFFNDTEGLDYDIALLELEKPAEYSSMVRPISLPDASHVFPAGKAIWVTGWGHTQYGGTGALILQKGEIRVINQTTCENLLPQLITPRMMCVGFLSGGVDSCEGDSGGPLSSVEADGRIFQAGVVSWGDGCAQRNKPGVYTRLPLFRDWIKENTGV
B5: MTSP-1 D96V/ins97aE/F97T/T98G/F99L/C122S/Q175L/Q192D (enzyme)
chain: VVGGTDADEGEWPWQVSLHALGQGHICGASLISPNWLVSAAHCYIDDRGFRYSDPTQWTAFLGLHDQSQRSAPGVQERRLKRIISHPFFNVTEGLDYDIALLELEKPAEYSSMVRPISLPDASHVFPAGKAIWVTGWGHTQYGGTGALILQKGEIRVINQTTCENLLPQLITPRMMCVGFLSGGVDSCDGDSGGPLSSVEADGRIFQAGVVSWGDGCAQRNKPGVYTRLPLFRDWIKENTGV
B6: MTSP-1 Y59F/F97T/ins97aE/T98G/F99L/C122S/Q175L/Q192D (enzyme)
chain: VVGGTDADEGEWPWQVSLHALGQGHICGASLISPNWLVSAAHCFIDDRGFRYSDPTQWTAFLGLHDQSQRSAPGVQERRLKRIISHPFFNDTEGLDYDIALLELEKPAEYSSMVRPISLPDASHVFPAGKAIWVTGWGHTQYGGTGALILQKGEIRVINQTTCENLLPQLITPRMMCVGFLSGGVDSCDGDSGGPLSSVEADGRIFQAGVVSWGDGCAQRNKPGVYTRLPLFRDWIKENTGV
B7: MTSP-1 Y59F/ins97aE/F97T/T98G/F99L/C122S/L153Q/Q175L/Q192E (enzyme)
chain: VVGGTDADEGEWPWQVSLHALGQGHICGASLISPNWLVSAAHCFIDDRGFRYSDPTQWTAFLGLHDQSQRSAPGVQERRLKRIISHPFFNDTEGLDYDIALLELEKPAEYSSMVRPISLPDASHVFPAGKAIWVTGWGHTQYGGTGAQILQKGEIRVINQTTCENLLPQLITPRMMCVGFLSGGVDSCEGDSGGPLSSVEADGRIFQAGVVSWGDGCAQRNKPGVYTRLPLFRDWIKENTGV
B8: MTSP-1 Y59F/D96V/ins97aE/F97T/T98G/F99L/C122S/Q175L/Q192E (enzyme)
chain: VVGGTDADEGEWPWQVSLHALGQGHICGASLISPNWLVSAAHCFIDDRGFRYSDPTQWTAFLGLHDQSQRSAPGVQERRLKRIISHPFFNVTEGLDYDIALLELEKPAEYSSMVRPISLPDASHVFPAGKAIWVTGWGHTQYGGTGALILQKGEIRVINQTTCENLLPQLITPRMMCVGFLSGGVDSCEGDSGGPLSSVEADGRIFQAGVVSWGDGCAQRNKPGVYTRLPLFRDWIKENTGV
B9: MTSP-1 E24K/ins97aE/F97T/T98G/F99L/C122S/A152S/Q175L/Q192D (enzyme)
chain: VVGGTDADKGEWPWQVSLHALGQGHICGASLISPNWLVSAAHCYIDDRGFRYSDPTQWTAFLGLHDQSQRSAPGVQERRLKRIISHPFFNDTEGLDYDIALLELEKPAEYSSMVRPISLPDASHVFPAGKAIWVTGWGHTQYGGTGSLILQKGEIRVINQTTCENLLPQLITPRMMCVGFLSGGVDSCDGDSGGPLSSVEADGRIFQAGVVSWGDGCAQRNKPGVYTRLPLFRDWIKENTGV
B10: MTSP-1 I41D/ins97aE/F97T/T98G/F99L/C122S/G151N/Q175L/Q192E (enzyme)
chain: VVGGTDADEGEWPWQVSLHALGQGHDCGASLISPNWLVSAAHCYIDDRGFRYSDPTQWTAFLGLHDQSQRSAPGVQERRLKRIISHPFFNDTEGLDYDIALLELEKPAEYSSMVRPISLPDASHVFPAGKAIWVTGWGHTQYGGTNALILQKGEIRVINQTTCENLLPQLITPRMMCVGFLSGGVDSCEGDSGGPLSSVEADGRIFQAGVVSWGDGCAQRNKPGVYTRLPLFRDWIKENTGV
B11: MTSP-1 I41R/Y59F/ins97aE/F97T/T98G/F99L/C122S/L153Q/Q175L/Q192E (enzyme)
chain: VVGGTDADEGEWPWQVSLHALGQGHRCGASLISPNWLVSAAHCFIDDRGFRYSDPTQWTAFLGLHDQSQRSAPGVQERRLKRIISHPFFNDTEGLDYDIALLELEKPAEYSSMVRPISLPDASHVFPAGKAIWVTGWGHTQYGGTGAQILQKGEIRVINQTTCENLLPQLITPRMMCVGFLSGGVDSCEGDSGGPLSSVEADGRIFQAGVVSWGDGCAQRNKPGVYTRLPLFRDWIKENTGV
B12: MTSP-1 I41D/ins97aE/F97T/T98G/F99L/C122S/Q175L/Q192E (enzyme)
chain: VVGGTDADEGEWPWQVSLHALGQGHDCGASLISPNWLVSAAHCYIDDRGFRYSDPTQWTAFLGLHDQSQRSAPGVQERRLKRIISHPFFNDTEGLDYDIALLELEKPAEYSSMVRPISLPDASHVFPAGKAIWVTGWGHTQYGGTGALILQKGEIRVINQTTCENLLPQLITPRMMCVGFLSGGVDSCEGDSGGPLSSVEADGRIFQAGVVSWGDGCAQRNKPGVYTRLPLFRDWIKENTGV
B13: MTSP-1 I41R/Y59F/ins97aE/F97T/T98G/F99L/C122S/Q175L/Q192D (enzyme)
chain: VVGGTDADEGEWPWQVSLHALGQGHRCGASLISPNWLVSAAHCFIDDRGFRYSDPTQWTAFLGLHDQSQRSAPGVQERRLKRIISHPFFNDTEGLDYDIALLELEKPAEYSSMVRPISLPDASHVFPAGKAIWVTGWGHTQYGGTGALILQKGEIRVINQTTCENLLPQLITPRMMCVGFLSGGVDSCDGDSGGPLSSVEADGRIFQAGVVSWGDGCAQRNKPGVYTRLPLFRDWIKENTGV
B14: MTSP-1 I41R/Y59F/G60dS/R84H/ins97aE/F97T/T98G/F99L/C122S/Q175L/Q192E/V212I (enzyme)
chain: VVGGTDADEGEWPWQVSLHALGQGHRCGASLISPNWLVSAAHCFIDDRSFRYSDPTQWTAFLGLHDQSQRSAPGVQERHLKRIISHPFFNDTEGLDYDIALLELEKPAEYSSMVRPISLPDASHVFPAGKAIWVTGWGHTQYGGTGALILQKGEIRVINQTTCENLLPQLITPRMMCVGFLSGGVDSCEGDSGGPLSSVEADGRIFQAGIVSWGDGCAQRNKPGVYTRLPLFRDWIKENTGV
B15: MTSP-1 I41R/ins97aE/F97T/T98G/F99L/A112V/C122S/Q175L/Q192E (enzyme)
chain: VVGGTDADEGEWPWQVSLHALGQGHRCGASLISPNWLVSAAHCYIDDRGFRYSDPTQWTAFLGLHDQSQRSAPGVQERRLKRIISHPFFNDTEGLDYDIALLELEKPVEYSSMVRPISLPDASHVFPAGKAIWVTGWGHTQYGGTGALILQKGEIRVINQTTCENLLPQLITPRMMCVGFLSGGVDSCEGDSGGPLSSVEADGRIFQAGVVSWGDGCAQRNKPGVYTRLPLFRDWIKENTGV
B16: MTSP-1 Y59F/G60dS/R84H/ins97aE/F97T/T98G/F99L/C122S/Q175L/Q192E/V212I (enzyme)
chain: VVGGTDADEGEWPWQVSLHALGQGHICGASLISPNWLVSAAHCFIDDRSFRYSDPTQWTAFLGLHDQSQRSAPGVQERHLKRIISHPFFNDTEGLDYDIALLELEKPAEYSSMVRPISLPDASHVFPAGKAIWVTGWGHTQYGGTGALILQKGEIRVINQTTCENLLPQLITPRMMCVGFLSGGVDSCEGDSGGPLSSVEADGRIFQAGIVSWGDGCAQRNKPGVYTRLPLFRDWIKENTGV
B17: MTSP-1 ins97aE/F97T/T98G/F99L/C122S/L153Q/Q175L/Q192D (enzyme)
chain: VVGGTDADEGEWPWQVSLHALGQGHICGASLISPNWLVSAAHCYIDDRGFRYSDPTQWTAFLGLHDQSQRSAPGVQERRLKRIISHPFFNDTEGLDYDIALLELEKPAEYSSMVRPISLPDASHVFPAGKAIWVTGWGHTQYGGTGAQILQKGEIRVINQTTCENLLPQLITPRMMCVGFLSGGVDSCDGDSGGPLSSVEADGRIFQAGVVSWGDGCAQRNKPGVYTRLPLFRDWIKENTGV
B18: MTSP-1 ins97aE/F97T/T98G/F99L/C122S/Q175L/Q192E/Q209L (enzyme)
chain: VVGGTDADEGEWPWQVSLHALGQGHICGASLISPNWLVSAAHCYIDDRGFRYSDPTQWTAFLGLHDQSQRSAPGVQERRLKRIISHPFFNDTEGLDYDIALLELEKPAEYSSMVRPISLPDASHVFPAGKAIWVTGWGHTQYGGTGALILQKGEIRVINQTTCENLLPQLITPRMMCVGFLSGGVDSCEGDSGGPLSSVEADGRIFLAGVVSWGDGCAQRNKPGVYTRLPLFRDWIKENTGV
B19: MTSP-1 ins97aE/F97T/T98G/F99L/C122S/I136M/L155M/N170D/Q175L/Q192E (enzyme)
chain: VVGGTDADEGEWPWQVSLHALGQGHICGASLISPNWLVSAAHCYIDDRGFRYSDPTQWTAFLGLHDQSQRSAPGVQERRLKRIISHPFFNDTEGLDYDIALLELEKPAEYSSMVRPISLPDASHVFPAGKAMWVTGWGHTQYGGTGALIMQKGEIRVINQTTCEDLLPQLITPRMMCVGFLSGGVDSCEGDSGGPLSSVEADGRIFQAGVVSWGDGCAQRNKPGVYTRLPLFRDWIKENTGV
B20: MTSP-1 I41R/ins97aE/F97T/T98G/F99L/C122S/G151S/Q175L/Q192E (enzyme)
chain: VVGGTDADEGEWPWQVSLHALGQGHRCGASLISPNWLVSAAHCYIDDRGFRYSDPTQWTAFLGLHDQSQRSAPGVQERRLKRIISHPFFNDTEGLDYDIALLELEKPAEYSSMVRPISLPDASHVFPAGKAIWVTGWGHTQYGGTSALILQKGEIRVINQTTCENLLPQLITPRMMCVGFLSGGVDSCEGDSGGPLSSVEADGRIFQAGVVSWGDGCAQRNKPGVYTRLPLFRDWIKENTGV
B21: MTSP-1 F97D/ins97aV/T98P/F99L/C122S/G151N/Q192G (enzyme)
chain: VVGGTDADEGEWPWQVSLHALGQGHICGASLISPNWLVSAAHCYIDDRGFRYSDPTQWTAFLGLHDQSQRSAPGVQERRLKRIISHPFFNDDVPLDYDIALLELEKPAEYSSMVRPISLPDASHVFPAGKAIWVTGWGHTQYGGTNALILQKGEIRVINQTTCENLLPQQITPRMMCVGFLSGGVDSCGGDSGGPLSSVEADGRIFQAGVVSWGDGCAQRNKPGVYTRLPLFRDWIKENTGV

The binders below were run against plasma purified human complement protein C3 (human) (UniProt P01024) (assay: cell-based or functional assay).
Chain of plasma purified human complement protein C3 (human) (P01024 23-667, chain 1 of 2): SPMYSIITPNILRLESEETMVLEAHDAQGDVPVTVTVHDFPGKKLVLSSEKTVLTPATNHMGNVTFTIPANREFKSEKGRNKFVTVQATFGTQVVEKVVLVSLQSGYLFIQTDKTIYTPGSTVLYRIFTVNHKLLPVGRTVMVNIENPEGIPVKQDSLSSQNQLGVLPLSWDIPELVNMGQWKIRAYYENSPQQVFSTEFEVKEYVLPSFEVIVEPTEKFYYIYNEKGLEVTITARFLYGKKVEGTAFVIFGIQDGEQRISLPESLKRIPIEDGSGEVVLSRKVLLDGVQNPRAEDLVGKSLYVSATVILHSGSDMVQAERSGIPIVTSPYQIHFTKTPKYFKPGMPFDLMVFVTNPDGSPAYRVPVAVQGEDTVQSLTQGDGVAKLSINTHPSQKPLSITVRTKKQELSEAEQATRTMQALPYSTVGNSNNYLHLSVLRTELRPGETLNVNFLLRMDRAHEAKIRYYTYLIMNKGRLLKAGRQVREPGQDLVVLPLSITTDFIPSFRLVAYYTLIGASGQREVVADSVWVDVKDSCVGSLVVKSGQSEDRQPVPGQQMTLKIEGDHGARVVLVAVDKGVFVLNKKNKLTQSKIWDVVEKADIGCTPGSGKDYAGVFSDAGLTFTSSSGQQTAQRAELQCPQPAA
Chain of plasma purified human complement protein C3 (human) (P01024 672-1663, chain 2 of 2): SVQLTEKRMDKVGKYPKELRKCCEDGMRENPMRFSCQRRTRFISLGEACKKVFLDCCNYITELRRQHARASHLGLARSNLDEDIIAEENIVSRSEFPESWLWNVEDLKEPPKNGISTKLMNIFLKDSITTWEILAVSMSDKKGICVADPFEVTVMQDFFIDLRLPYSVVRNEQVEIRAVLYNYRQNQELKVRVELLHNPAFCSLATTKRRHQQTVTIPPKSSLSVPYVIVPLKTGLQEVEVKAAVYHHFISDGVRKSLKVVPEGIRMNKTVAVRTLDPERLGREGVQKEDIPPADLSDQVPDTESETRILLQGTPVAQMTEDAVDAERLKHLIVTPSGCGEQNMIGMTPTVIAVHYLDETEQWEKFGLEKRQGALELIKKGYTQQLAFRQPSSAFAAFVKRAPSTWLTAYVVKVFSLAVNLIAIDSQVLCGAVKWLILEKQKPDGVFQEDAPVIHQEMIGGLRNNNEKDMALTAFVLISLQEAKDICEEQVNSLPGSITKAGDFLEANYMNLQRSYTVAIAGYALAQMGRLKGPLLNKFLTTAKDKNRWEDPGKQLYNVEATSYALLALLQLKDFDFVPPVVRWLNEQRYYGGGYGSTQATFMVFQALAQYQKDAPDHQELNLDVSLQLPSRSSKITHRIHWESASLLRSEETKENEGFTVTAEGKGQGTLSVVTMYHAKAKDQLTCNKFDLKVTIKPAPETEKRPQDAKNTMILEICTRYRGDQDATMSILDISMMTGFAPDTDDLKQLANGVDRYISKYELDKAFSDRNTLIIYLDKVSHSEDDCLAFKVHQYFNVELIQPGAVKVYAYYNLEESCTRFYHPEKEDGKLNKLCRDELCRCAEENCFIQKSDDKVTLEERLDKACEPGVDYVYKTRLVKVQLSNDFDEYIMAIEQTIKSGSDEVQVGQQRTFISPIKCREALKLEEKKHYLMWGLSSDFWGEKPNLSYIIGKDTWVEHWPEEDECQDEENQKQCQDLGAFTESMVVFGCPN

Row | Binder | EC50 of hC3 cleavage
1 | B1 | 97.3 nM
2 | B2 | 30.9 nM
3 | B3 | 21.9 nM
4 | B4 | 341 nM
5 | B5 | 258 nM
6 | B6 | 289 nM
7 | B7 | 237 nM
8 | B8 | 293 nM
9 | B9 | 291 nM
10 | B10 | 148 nM
11 | B11 | 253 nM
12 | B12 | 157 nM
13 | B13 | 288 nM
14 | B14 | 143 nM
15 | B15 | 288 nM
16 | B16 | 102 nM
17 | B17 | 332 nM
18 | B18 | 383 nM
19 | B19 | 429 nM
20 | B20 | 274 nM
21 | B21 | 87 nM
